This passage reports binding result and Kd results from patent publication US12122842 (R AND D SYSTEMS, dated 2024).

For assay [1], the target named is T1, human CD30/TNFRSF8 on Jurkat human acute T cell leukemia cells (Clone E6-1) (human, UniProt P28908 19-595).
T1 construct: Endogenous CD30 on Jurkat cells; also called hCD30; hCD30/TNFRSF8
T1 sequence: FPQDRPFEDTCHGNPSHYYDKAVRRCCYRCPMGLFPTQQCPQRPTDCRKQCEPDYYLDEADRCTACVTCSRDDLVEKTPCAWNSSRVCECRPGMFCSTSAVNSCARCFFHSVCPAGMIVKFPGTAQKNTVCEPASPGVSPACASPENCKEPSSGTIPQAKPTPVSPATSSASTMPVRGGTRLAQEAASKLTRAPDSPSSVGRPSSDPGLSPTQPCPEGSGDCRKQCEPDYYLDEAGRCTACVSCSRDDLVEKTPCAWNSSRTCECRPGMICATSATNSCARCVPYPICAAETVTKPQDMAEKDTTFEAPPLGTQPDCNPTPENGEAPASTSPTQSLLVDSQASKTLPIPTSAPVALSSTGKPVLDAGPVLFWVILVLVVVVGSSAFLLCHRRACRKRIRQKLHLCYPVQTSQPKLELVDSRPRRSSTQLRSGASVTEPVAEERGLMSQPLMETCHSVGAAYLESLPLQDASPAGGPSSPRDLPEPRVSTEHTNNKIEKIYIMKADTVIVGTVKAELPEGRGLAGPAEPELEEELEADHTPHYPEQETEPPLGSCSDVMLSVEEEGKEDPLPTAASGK
Description: flow cytometry on Jurkat cells, PE anti-mouse IgG secondary. As for the experimental part: Jurkat human acute T cell leukemia cell line (Clone E6-1, ATCC Catalog #TIB-152) was stained with Mouse Anti-Human CD30 Monoclonal Antibody (Clone 81316.11, filled histogram) or isotype control antibody (Catalog #MAB002, open histogram), followed by Phycoerythrin-conjugated Anti-Mouse IgG Secondary Antibody (Catalog #F0102B).
Jurkat cells were harvested and washed two times in 2 mL of 1x flow staining buffer (FC001). The cells were resuspended in 1x flow staining buffer to a concentration of ~1.0×10⁶ cells/mL. About 90 µL of the cell suspension was added to each flow tube. About 10 µL of either 25 µg/mL Msxh CD30 or MsIgG1 was added to the appropriate tube, and the tubes were vortexed and then incubated for 20 minutes at room temperature. Cells were washed two times in 2 mL of 1× flow staining buffer. About 10 µL of goat anti-Mouse IgG PE secondary antibody was added to each tube, vortexed, and then incubated in the dark for 20 minutes at room temperature. Cells were washed two times in 2 mL of 1× flow staining buffer. 100 µL of 2× Sytox Blue Dead Cell Stain (ThermoFisher, S34857) was added and the cells were analyzed by flow cytometry.

Assay [2] addresses T2, recombinant human CD30 protein (UniProt P28908 19-385).
T2 chain: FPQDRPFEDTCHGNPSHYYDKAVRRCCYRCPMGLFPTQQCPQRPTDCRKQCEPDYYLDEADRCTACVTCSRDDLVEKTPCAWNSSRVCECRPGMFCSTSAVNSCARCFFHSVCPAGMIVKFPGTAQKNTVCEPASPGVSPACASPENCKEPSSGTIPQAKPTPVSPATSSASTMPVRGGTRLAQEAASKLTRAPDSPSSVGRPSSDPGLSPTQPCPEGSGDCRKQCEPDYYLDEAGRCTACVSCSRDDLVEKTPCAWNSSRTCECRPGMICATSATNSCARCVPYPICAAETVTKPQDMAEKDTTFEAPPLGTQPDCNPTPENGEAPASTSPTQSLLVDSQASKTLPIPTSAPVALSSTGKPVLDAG
Kind of assay: SPR.

B1: Mouse Anti-Human CD30 Monoclonal Antibody (Clone 81316.11) (antibody, V domains shown)
VH: QVQLKESGPGLVAPSQSLSITCTVSGFSLTSYGVHWVRQPPGKGLEWLGVIWAGETINYNLALMSRLSISKDNSKSQVFLKMNSLQTEDTAMYYCARDQGEYGNYGWYFDVWGAGTTVTVSS
VL: DIQMTQTTSSLSASLGDRVTISCSASQGISNYLNWYQQKPDGTVKLLIYYTSSLHSGVPSRFSGSGSGTDYSLTISNLEPEDIATYYCQHYSKLPPTFGGGTKLEIKR
notes: It is a mouse monoclonal, and the isotype control used beside it is MsIgG1; also called anti-hCD30 antibody; recombinant hCD30 antibody
On to B1, for which the binding result in assay [1] is “binds”. The Kd in assay [2] is 5.1 nM.
